In the Human Domainome abundance scans (Beltran et al. 2025):
± gives the uncertainty stated by the source.

B1: Chromodomain-helicase-DNA-binding protein 4, residues 623 to 675; numbered along this chain, Q14839 (parent)
chain: MIHRILNHSVDKKGHVHYLIKWRDLPYDQASWESEDVEIQDYDLFKQSYWNHR

Variants of: B1
Experiment: abundance fitness (aPCA) (normalised: wild type 0, dead -1); higher = more abundant; growth selection in yeast, the domain comes from the species named
Conditions: Homo sapiens

Row | Variant | abundance fitness
1 | H17D | -0.43 ± 0.12
2 | H17N | -0.052 ± 0.15
3 | H17S | -0.155 ± 0.094
4 | H17G | -0.756 ± 0.094
5 | H17F | -0.312 ± 0.2
6 | H17A | -0.252 ± 0.091
7 | I20C | -0.686 ± 0.14
8 | I20G | -0.791 ± 0.12
9 | S9V | -0.407 ± 0.11
10 | S9F | -0.127 ± 0.1
11 | S9T | -0.068 ± 0.096
12 | S9N | -0.484 ± 0.14
13 | S9W | -0.198 ± 0.1
14 | S9K | 0.139 ± 0.095
15 | Q29A | -0.105 ± 0.11
16 | Q29M | -0.4 ± 0.15
17 | Q29W | -0.589 ± 0.14
18 | Q29K | 0.101 ± 0.14
19 | Q29S | -0.27 ± 0.089
20 | H8G | -0.832 ± 0.11
21 | H8Y | -0.803 ± 0.14
22 | H8A | -0.857 ± 0.14
23 | H8S | -0.713 ± 0.11
24 | H8F | -0.875 ± 0.18

Row | Variant | abundance fitness
25 | R4M | -0.136 ± 0.12
26 | R4D | -0.479 ± 0.17
27 | R4Y | -0.102 ± 0.15
28 | R4H | -0.108 ± 0.14
29 | R4W | -0.263 ± 0.12
30 | R4T | -0.047 ± 0.1
31 | P26Y | -0.339 ± 0.22
32 | P26D | -0.163 ± 0.17
33 | P26H | -0.274 ± 0.25
34 | P26L | -0.62 ± 0.11
35 | P26F | -0.749 ± 0.48
36 | E38D | -0.175 ± 0.15
37 | E38P | -0.2 ± 0.11
38 | E38S | -0.157 ± 0.087
39 | E38Y | -0.337 ± 0.14
40 | E38Q | -0.018 ± 0.15
41 | H3W | -0.245 ± 0.12
42 | H3P | -0.741 ± 0.16
43 | H3E | 0.437 ± 0.14
44 | H3S | -0.047 ± 0.09
45 | R23D | -0.591 ± 0.18
46 | R23G | -0.481 ± 0.14
47 | R23F | -0.349 ± 0.11
48 | R23A | -0.207 ± 0.11

Row | Variant | abundance fitness
49 | R23W | -0.183 ± 0.12
50 | G14N | -0.451 ± 0.084
51 | G14K | -0.404 ± 0.21
52 | G14D | -0.727 ± 0.11
53 | S48C | -0.083 ± 0.12
54 | S48W | -0.412 ± 0.1
55 | S48R | 0.14 ± 0.075
56 | S48M | 0.016 ± 0.091
57 | S48G | -0.206 ± 0.087
58 | S48Y | 0.093 ± 0.13
59 | N7V | -0.724 ± 0.11
60 | N7D | 0.013 ± 0.11
61 | N7T | -0.162 ± 0.077
62 | N7S | -0.112 ± 0.071
63 | N7A | -0.068 ± 0.097
64 | L6P | -0.695 ± 0.11
65 | L6N | -0.804 ± 0.12
66 | L6T | -0.75 ± 0.1
67 | L6D | -0.907 ± 0.15
68 | L6S | -0.824 ± 0.096
69 | E35G | -0.22 ± 0.1
70 | E35S | -0.131 ± 0.089
71 | E35M | -0.874 ± 0.15
72 | E35Y | -0.757 ± 0.15
